Assay results as given in publication doi:10.1101/2020.01.14.906479 (bioRxiv, 2020).
Square brackets hold non-standard residues; d marks the D form. Ends that are not written are not given here. pS = N[C@@H](COP(=O)(O)O)C(=O)O

T1: recombinant Plasmodium falciparum 14-3-3I (GST-14-3-3I fusion protein) (P. falciparum 3D7, UniProt C0H4V6 1-262)
T1 sequence (looked up): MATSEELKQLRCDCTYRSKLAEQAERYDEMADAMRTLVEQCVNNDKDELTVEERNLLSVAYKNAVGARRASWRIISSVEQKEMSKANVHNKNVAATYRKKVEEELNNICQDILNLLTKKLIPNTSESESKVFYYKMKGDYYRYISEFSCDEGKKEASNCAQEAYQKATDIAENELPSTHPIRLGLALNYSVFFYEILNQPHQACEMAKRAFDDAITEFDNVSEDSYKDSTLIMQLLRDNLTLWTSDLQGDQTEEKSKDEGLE

B1: phosphopeptide 1 (Mode I 14-3-3 recognition motif, ARSHpSYPA) (peptide)
peptide: ARSH[pS]YPA
B2: phosphopeptide 2 (Mode II 14-3-3 recognition motif, RLYHpSLPA) (peptide)
peptide: RLYH[pS]LPA

Biological target: T1, recombinant Plasmodium falciparum …
Experiment: ITC

Binder	Ka [M⁻¹]	dH [kJ/mol]
B1	1.7e+06	-47.4 ± 17.9
B2	830000	-6.36 ± 0.402
